Data set [1] deals with T1, human Nogo Receptor-1 protein (NgR1) (Homo sapiens, UniProt Q9BZR6).
T1 construct: expressed in transfected cells; host or cells: COS7
T1 sequence (Q9BZR6 27-447): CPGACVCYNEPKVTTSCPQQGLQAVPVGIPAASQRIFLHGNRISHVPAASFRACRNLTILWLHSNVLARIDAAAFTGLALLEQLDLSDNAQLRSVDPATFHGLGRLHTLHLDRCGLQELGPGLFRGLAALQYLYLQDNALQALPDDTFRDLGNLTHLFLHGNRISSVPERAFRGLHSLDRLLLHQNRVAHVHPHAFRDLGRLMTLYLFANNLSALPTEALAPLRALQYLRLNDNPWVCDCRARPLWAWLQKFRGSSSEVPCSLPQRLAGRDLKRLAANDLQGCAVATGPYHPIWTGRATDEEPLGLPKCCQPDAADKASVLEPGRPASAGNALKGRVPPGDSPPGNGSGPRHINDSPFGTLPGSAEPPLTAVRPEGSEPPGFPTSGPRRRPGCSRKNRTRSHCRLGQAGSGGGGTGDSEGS
Description: Binding of purified fusion protein to NgR1-expressing COS7 cells, colorimetric alkaline phosphatase staining. As to conditions: colorimetric staining based on associated alkaline phosphatase activity. The procedure: Purified fusion protein was assayed for binding to COS7 cells expressing the human Nogo Receptor-1 protein (NgR1). […] Thus, a non-aggregated fusion protein was created that can be used as a reagent to explore the interaction of Nogo-66 with its receptor, or receptors, as well as to identify agents interfering in that interaction (see Example 3).

For another data set, the target named is T2, NgR1 (Homo sapiens, UniProt Q9BZR6).
T2 construct: expressed in transfected cells; host or cells: CHO
T2 sequence (Q9BZR6 27-447): T1 sequence (Q9BZR6 27-447)
Description: Cell-based chemiluminescent SEAP binding assay on CHO cells expressing NGR1. As to conditions: CSPD substrate. The procedure:
A cell-based chemiluminescent SEAP (secreted alkaline phosphastase) assay was used to confirm binding between NgR1 and the fusion reporter protein having the amino acid sequence of SEQ ID NO:16.
On Day 1: CHO cells expressing NGR1 are seeded into each well of a Biocoat poly-D-lysine cellware 96-well plate (Becton Dickinson).
1. The medium is removed and cells are washed with 200 μl/well of HBAH (Hanks' balanced salt solution, bovine serum albumin at 0.5 mg/ml) at room temperature.
2. 100 μl of conditioned medium containing the fusion protein (i.e., conditioned medium prior to resin purification in Example 2 above) is added (or 2 μg of purified fusion protein can be added) to each well. The wells are incubated at room temperature for 90 minutes.
3. The medium is removed from the wells. The cells are washed six times with 200 μl HBAH at room temperature. For each wash, the HBAH is incubated with the cells for 5 minutes and the plates gently swirled.
4. The HBAH is removed. The cells are then fixed with 200 μl of fixative buffer (acetone-formaldehyde (60%, 3%, 20 mM HEPES, pH 7.0)) for 15 seconds at room temperature.
5. The cells are then washed three times with HBS (Hanks' balanced salt solution), 5 minutes each time at room temperature.
6. Buffers are equilibrated to room temperature. […]
16. Read the plates on a LMAXII Luminometer (Molecular Devices, Sunnyvale, Calif.). […]

The nature of data set [2]: Aggregation of purified fusion protein by polyacrylamide gel electrophoresis. The data set is classed as physicochemical. As to conditions: protein purified from HEK293 conditioned medium by TALON metal affinity chromatography. The procedure: The cDNA (SEQ ID NO:15) of the full-length fusion protein was inserted into the pSMED2 mammalian expression vector and the predicted sequence was confirmed by standard means. The vector was transfected into HEK293 cells and after 48 hours the medium in which the cells were grown was collected (referred to as conditioned medium) (see Example 2). After transfection, the conditioned medium was assayed to determine whether the fusion protein was secreted from the cells. The presence of the fusion protein in the conditioned medium was verified by Western blotting using an antibody against the alkaline phosphatase portion of the fusion. The fusion protein was purified from conditioned medium by TALON (BD/Clonetech) metal affinity chromatography (via the 6 His-tag of the fusion protein) (see Example 2).

Data set [3] addresses T3, human Nogo Receptor-1 protein (NgR1) (human, UniProt Q9BZR6 27-447).
T3 construct: whole, on cells; also called NgR1 receptor
T3 sequence (looked up): T1 sequence (Q9BZR6 27-447)
Description: colorimetric alkaline phosphatase staining of COS7 cells expressing human NgR1. On the procedure: Purified fusion protein was assayed for binding to COS7 cells expressing the human Nogo Receptor-1 protein (NgR1). Binding was confirmed by colorimetric staining of NgR1 expressing cells based on associated alkaline phosphatase activity conferred by the fusion protein (see Example 3). Thus, a non-aggregated fusion protein was created that can be used as a reagent to explore the interaction of Nogo-66 with its receptor, or receptors, as well as to identify agents interfering in that interaction (see Example 3).

As to “SEQ ID NO:16: Fusion of signal peptide, human placental secreted alkaline phosphatase portion, enterokinase site, human Nogo-66 domain with Cys47 to Val, His6 tag”, in data set [1], the “binding to COS7 cells expressing human NgR1” value is given as “Binding was confirmed”. Further, the “binding to NgR1” value with NgR1 was “can bind to NgR1”. For the same molecule, the “aggregation state (bands of higher molecular weight)” value in data set [2] is recorded as “does not aggregate”; in data set [2] (listed as fusion protein), “not aggregated”.

B1: alkaline phosphatase mutant Nogo-66 domain fusion reporter protein (SEQ ID NO:16) (ligand)
chain: TSRSSGIIPVEEENPDFWNREAAEALGAAKKLQPAQTAAKNLIIFLGDGMGVSTVTAARILKGQKKDKLGPEIPLAMDRFPYVALSKTYNVDKHVPDSGATATAYLCGVKGNFQTIGLSAAARFNQCNTTRGNEVISVMNRAKKAGKSVGVVTTTRVQHASPAGTYAHTVNRNWYSDADVPASARQEGCQDIATQLISNMDIDVILGGGRKYMFRMGTPDPEYPDDYSQGGTRLDGKNLVQEWLAKRQGARYVWNRTELMQASLDPSVTHLMGLFEPGDMKYEIHRDSTLDPSLMEMTEAALRLLSRNPRGFFLFVEGGRIDHGHHESRAYRALTETIMFDDAIERAGQLTSEEDTLSLVTADHSHVFSFGGYPLRGSSIFGLAPGKARDRKAYTVLLYGNGPGYVLKDGARPDVTESESGSPEYRQQSAVPLDEETHAGEDVAVFARGPQAHLVHGVQEQTFIAHVMAFAACLEPYTACDLAPPAGTTDAAHPGNDDDDKLSRDKRIYKGVIQAIQKSDEGHPFRAYLESEVAISEELVQKYSNSALGHVNVTIKELRRLFLVDDLVDSLKHHHHHH
notes: Expressed in HEK293 cells and secreted; Used either purified on TALON resin or as conditioned medium; also called fusion protein; secreted alkaline phosphatase mutant Nogo-66 domain fusion reporter protein
For the molecule B1, the binding result in data set [3] was “binds”.
